Drawing on PMC10433817, this text covers Kd for 1 substance.

This series has as its system ThserRS (seryl-tRNA synthetase, GME12055) (Trametes hirsuta AH28-2). The experiment in a line: fluorescence polarization. To be noted: 5 mM Mg2+; 25 mM HEPES pH 6.5, 5 mM MgCl2, 150 mM KCl, 1 mM DTT, 5% glycerol, 16 C, 30 min; probe 0.5 uM (EMSA) or 40 nM (FP); further truncations of the 32-bp probe gave …. On the technique in general: Polarisation of emitted light reports the rotation of a fluorescent probe.

A word on the Kd: it is the concentration at which binding is half-saturated.

“lacA promoter 32-bp minimal probe (-462 to -431)” came in with a Kd of 920 nM.
